Measurements published in patent US20220033501A1 (SHANGHAI PHARMAEXPLORER, published 2022).
Where a chain is given by its changes, count along the chain named.

T1: murine TIM-3 extracellular domain protein with hFc tag (mTIM-3-hFc) (mouse, UniProt Q8VIM0 29-191)
T1 construct: also called mouse TIM-3 extracellular domain protein; not shown: human IgG Fc fragment (hFc) of the pCpC vector
T1 chain: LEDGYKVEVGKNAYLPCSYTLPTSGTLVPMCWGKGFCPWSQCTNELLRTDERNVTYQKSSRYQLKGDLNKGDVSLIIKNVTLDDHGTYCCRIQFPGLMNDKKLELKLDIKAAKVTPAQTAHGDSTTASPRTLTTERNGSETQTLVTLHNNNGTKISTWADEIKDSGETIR

T2: human TIM-3 on CHOK1 stable cell line (CHOK1-hTIM-3) (human, UniProt Q8TDQ0 22-301)
T2 sequence: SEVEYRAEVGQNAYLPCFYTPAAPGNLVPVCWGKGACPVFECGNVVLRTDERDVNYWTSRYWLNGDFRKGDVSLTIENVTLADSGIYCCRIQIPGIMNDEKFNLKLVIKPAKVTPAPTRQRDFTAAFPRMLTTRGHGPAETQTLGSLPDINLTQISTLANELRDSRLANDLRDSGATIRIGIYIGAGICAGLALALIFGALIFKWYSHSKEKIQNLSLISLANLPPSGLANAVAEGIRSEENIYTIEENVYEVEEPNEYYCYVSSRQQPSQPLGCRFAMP

T3: monkey TIM-3 on CHOK1 stable cell line (CHOK1-cTIM-3) (monkey)
T3 chain: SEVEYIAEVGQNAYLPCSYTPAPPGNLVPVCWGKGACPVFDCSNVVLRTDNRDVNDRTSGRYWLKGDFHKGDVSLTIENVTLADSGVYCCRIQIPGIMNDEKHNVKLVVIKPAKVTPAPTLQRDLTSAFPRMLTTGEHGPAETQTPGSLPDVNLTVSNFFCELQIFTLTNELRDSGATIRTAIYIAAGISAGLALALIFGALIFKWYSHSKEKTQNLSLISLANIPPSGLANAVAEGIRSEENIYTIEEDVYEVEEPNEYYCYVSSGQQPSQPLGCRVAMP

T4: monkey TIM-3 extracellular domain protein with hFc tag (cTIM-3-hFc) (monkey)
T4 construct: not shown: human IgG Fc fragment (hFc) of the pCpC vector
T4 chain: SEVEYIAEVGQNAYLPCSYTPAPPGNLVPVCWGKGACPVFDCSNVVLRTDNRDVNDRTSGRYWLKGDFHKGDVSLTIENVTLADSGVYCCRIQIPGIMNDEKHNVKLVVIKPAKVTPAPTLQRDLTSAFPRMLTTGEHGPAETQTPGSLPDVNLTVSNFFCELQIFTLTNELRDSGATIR

T5: human TIM-3 extracellular domain protein with hFc tag (hTIM-3-hFc) (human, UniProt Q8TDQ0 22-200)
T5 construct: not shown: human IgG Fc fragment (hFc) of the pCpC vector
T5 sequence: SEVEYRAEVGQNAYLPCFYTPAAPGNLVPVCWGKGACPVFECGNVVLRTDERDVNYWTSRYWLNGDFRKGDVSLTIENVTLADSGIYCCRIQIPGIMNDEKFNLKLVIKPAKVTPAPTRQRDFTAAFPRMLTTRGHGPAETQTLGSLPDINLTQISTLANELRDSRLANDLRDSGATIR

B1: 18D2H2 fully human TIM-3 antibody (human IgG4, kappa) (antibody, V domains shown)
VH: EVQLVESGGDLVQPGGSLRLSCAASGFTFSTYWMTWVRQAPGRGLEWVANIKQDGSAKYYVDSVKGRFTLSRDDAKNSLYLQMNSLRAEDTAVYYCARGSNWFDYWGQGTLVTVSS
VL: ETVMTQSPATLSVSPGERATLSCRANQNVYSNLAWYQQKPGQAPRLLIYDASTRATGFPARFSGSGSGTEFTLTISSLQSEDFAVYYCQQYNNWPLTFGGGTKVEIK
B2: 39E5H1 fully human TIM-3 antibody (human IgG4, kappa) (antibody, V domains shown)
VH: EVQLVESGGGLVQPGGSLRLSCAASGFTFSSYWMSWVRQAPGKGLEWVANIKRGGSERYYVDSVKGRFTISGDNAKNSVYLQMNSLRAEDTAVYYCARGSNWFDPWGQGTLVTVSS
VL: B1 VL with T10I, N26S, N28S, P40L, F58I, L96I, G100Q, K103R, V104L
B3: 34B6D8 fully human TIM-3 antibody (human IgG4, kappa) (antibody, V domains shown)
VH: B2 VH with S31T, S35T, G44R, R53Q, S56G, E57D, R58K, G72T, V79L
VL: EIVMTQSPATLSMSPGERATLSCRASQSVYDNLAWYQQKPGQAPRLLIYGASTRATGIPARFSGSGSGTEFTLTISSLQSEDFALYYCQQYTHWPITFGQGTRLEIK

Tests used:
[1] = target: T1, murine TIM-3 extracellular domain …; assay: ELISA, coated mouse TIM-3 ECD protein, 0.0667 nM antibody
[2] = target: T2, human TIM-3 on CHOK1 stable cell line …; assay: FACS, CHOK1-hTIM-3 cells, 8 nM antibody
[3] = target: T3, monkey TIM-3 on CHOK1 stable cell line …; assay: FACS, CHOK1-cTIM-3 cells, 0.013 nM antibody
[4] = target: T4, monkey TIM-3 extracellular domain …; assay: ELISA, coated monkey TIM-3 ECD protein, 0 nM antibody
[5] = target: T5, human TIM-3 extracellular domain …; assay: ELISA, coated human TIM-3 ECD protein, 0.6667 nM antibody
[6] = target: T4, monkey TIM-3 extracellular domain …; assay: ELISA, coated monkey TIM-3 ECD protein, 6.6667 nM antibody

Row | Binder | OD450 [1] | Mean fluorescence intensity [2] | Mean fluorescence intensity [3] | OD450 [4] | OD450 [5] | OD450 [6]
1 | B1 | 0.22 | 268 | 14.8 | 0.13 | 2.58 | 3.3
2 | B2 | 0.24 | 234 | 14.8 | 0.16 | 3.01 | 3.35
3 | B3 | 0.25 | 219 | 12.7 | 0.17 | 3.11 | 3.39
